This note sets out measurements from US20240343773A1 (AMIDEBIO, published 2024).

For this test, the target named is insulin receptor (IR) (UniProt P06213 28-1382). Briefly: method not stated; in the absence of glucose.

Ends that are not written are not given here.

B1: SEQ ID NO: 5 (ligand)
chain: FVDQHLCGSHLVEALYLVCGERGFFYTPKTYDGKGIVEQCCTSICSLYQLENYCG
modifications: ends and bridges not checked; cysteine pairing not given here
notes: Single chain insulin analog (B chain-C'-A chain)
Take B1: binding was put at a Kd of 4.51 nM.

B2: SEQ ID NO: 7 (ligand)
chain: FVGQHLCGSHLVEALYLVCGERGFFYTPKTYDGKGIVEQCCTSICSLYQLENYCG
modifications: ends and bridges not checked; cysteine pairing not given here
notes: as for B1
With B2, the Kd (usually the constant that tells how readily two partners part at equilibrium) came out at 1.21 nM.
